For experiment [1], the target named is Giardia lamblia tryptophanyl-tRNA synthetase (Giardia lamblia (strain WB)). As to the kind of experiment: SEC. (In general: SEC sorts molecules by how far they enter the pores of the column.)
Experiment [2] has the same target. As to the kind of experiment: SEC. This is another data set of the same source.

As usually defined, the stoichiometry N is a count of units in the complex or per binding partner.

Where two headings read alike, the source gives them in different places.

Consider “Giardia lamblia tryptophanyl-tRNA synthetase (enzyme)”, for which the stoichiometry N in experiment [1] and in experiment [2] was 2 throughout.
